This note sets out measurements from US6962795 (CORVAS INTERNATIONAL, dated 2005).

Experiment [1] concerns the target T1, Mac-1 integrin complex (CD11b/CD18) (human, UniProt P11215 17-1152; P05107 23-769). The experiment is described as follows: soluble NIF-1FL pre-incubated in varying amounts on LM2/Mac-1-coated wells before the phages.
Experiment [2] has as its target T1, Mac-1 integrin complex (CD11b/CD18). The experiment is described as follows: panning of a 1:1 mix of pAN-NIF-1FL and fd-tet phage on a Mac-1-coated well, acid elution, colony counts.
Experiment [3] shares this target. The experiment is described as follows: ELISA on LM2-captured Mac-1, 3D2-HRP detection, Pichia supernatant.
For experiment [4] the target is unchanged. The experiment is described as follows: competition with biotinylated NIF-1FL on LM2-captured Mac-1, Pichia supernatant.
The target is the same in experiment [5]. The experiment in a line: competition ELISA with biotinylated mature NIF-1FL on LM2-captured Mac-1 (FIG. 18).

B1: recombinant mature NIF-1FL produced in Pichia pastoris (ligand)
chain: NEHNLRCPQNGTEMPGFNDSIRLQFLAMHNGYRSKLALGHISITEESESDDDDDFGFLPDFAPRASKMRYLEYDCEAEKSAYMSARNCSDSSSPPEGYDENKYIFENSNNISEAALKAMISWAKEAFNLNKTKEGEGVLYRSNHDISNFANLAWDAREKFGCAVVNCPLGEIDDETNHDGETYATTIHVVCHYPKINKTEGQPIYKVGTPCDDCSEYTKKADNTTSADPVCIPDDGVCFIGSKADYDSKEFYRFREL
modifications: N-glycosylated (Pichia); biotinylated on oxidised carbohydrate where used as labelled tracer
notes: also called rNIF; recombinant NIF
In the case of B1, the binding result in experiment [1] is “binds”.

B2: phages displaying mature NIF-1FL (NIF-1FL-pgIII fusion from pAN-NIF-1FL) (other)
chain: NEHNLRCPQNGTEMPGFNDSIRLQFLAMHNGYRSKLALGHISITEESESDDDDDFGFLPDFAPRASKMRYLEYDCEAEKSAYMSARNCSDSSSPPEGYDENKYIFENSNNISEAALKAMISWAKEAFNLNKTKEGEGVLYRSNHDISNFANLAWDAREKFGCAVVNCPLGEIDDETNHDGETYATTIHVVCHYPKINKTEGQPIYKVGTPCDDCSEYTKKADNTTSADPVCIPDDGVCFIGSKADYDSKEFYRFREL
notes: An extra Ala codon stands between the pelB signal and NIF-1FL; also called NIF-phage; NIF-displaying phages; not shown: linker with a NotI site and a suppressed TAG amber codon between NIF-1FL and pgIII; product of filamentous phage M13 gene III (pgIII), fused at the C-terminus of NIF-1FL
Regarding B2, in experiment [2], the “fold enrichment over non-displaying fd-tet phage” value is 30 fold.

B3: recombinant NIF-1FL/Δh, Gl1-7 produced in Pichia pastoris (ligand)
chain: NEHNLRCPQQGTEMPGFQDSIRLQFLAMHNGYRSKLALGHISITEESESDDDDDFGFLPDFAPRASKMRYLEYDCEAEKSAYMSARQCSDSSSPPEGYDENKYIFENSNQISEAALKAMISWAKEAFNLQKTKEGEGVLYRSNHDISNFANLAWDAREKFGCAVVNCPLGEIDDETNHDGETYATTIHVVCHYPKIQKTEGQPIYKVGTPCDDCSEYTKKADQTTSADPVCIPDDGVCFIGSKADYDSKEFYRFREL
notes: Mature NIF-1FL with Asn to Gln at positions 10, 18, 87, 110, 130, 197 and 223; also called hNIF1/Δh, Gl1-7; AcaNIF1/Δh, Gl1-7
As for B3, the binding result in experiment [3] was “binds”.

B4: recombinant NIF-1FL/ΔGl1-5 produced in Pichia pastoris (ligand)
chain: NEHNLRCPQQGTEMPGFQDSIRLQFLAMHNGYRSKLALGHISITEESESDDDDDFGFLPDFAPRASKMRYLEYDCEAEKSAYMSARQCSDSSSPPEGYDENKYIFENSNQISEAALKAMISWAKEAFNLQKTKEGEGVLYRSNHDISNFANLAWDAREKFGCAVVNCPLGEIDDETNHDGETYATTIHVVCHYPKINKTEGQPIYKVGTPCDDCSEYTKKADNTTSADPVCIPDDGVCFIGSKADYDSKEFYRFREL
notes: Mature NIF-1FL with Asn to Gln at positions 10, 18, 87, 110 and 130; also called hNIF1/ΔGl1-5; AcaNIF1/ΔGl1-5
On to B4, for which, in experiment [3], the binding result is listed as “binds”.

B5: recombinant AcaNIF6 produced in Pichia pastoris (ligand)
chain: NEHKPMCQQNETEMPGFNDLMRLQFLAMHNGYRSKLALGHISITDESESDYDYDYGFLPDFAPSASKMRYLEYDCEAERSAYTSASDCSDSSSPPEGYDENKYIFENSNNISEAALKAMISWAKEAFNLNKTEKGVLYQPNHDISNFANLAWDTREKFGCAVVNCPLGEIDADIYDEETYATTIHVVCHYPKINKTEGEPIYKVGTPCDDCSEYTKKADNTTSADPVCIPDDGVCFIGSKADYDSKEFYRFREL
notes: also called mature AcaNIF6
With B5, the binding result in experiment [3] is listed as “binds”.

B6: recombinant AcaNIF9 produced in Pichia pastoris (ligand)
chain: NEHDPTCPQNEVEMEKGFDDAMRLKFLALHNGYRSKLALGHVSITEESEDYDLYDLLYAPTASKMRYLEYDCEAEKSAYESAKKCQTTAFSSTKYDENLQVIEDPRDINHAALKAIISWATEAFNLNKTGEGVVYRSILNISNFANLAWDTREKVGCAVVKCPSGNTHVVCHYPKIVKKEGKPIYSIGKPCRGCNDYASKFFCHADEGVCIIASRDLDIYGRKKYFYPFREL
notes: Only partially purified when tested
B6: in experiment [4], the binding result is “binds”.

B7: recombinant AcaNIF4 produced in Pichia pastoris (ligand)
chain: NEHKPMCERNETEMPGFNDSMRLQFLAMHNGYRSLLALGHVGISKQPIDDDYYDDDYYYFYSSYAPRASKMRYLEYDCEAEKSAYVSASNCSNISSPPEGYDENKYIFENSNNISEAALKAMISWAKEAFNLNKTEEGEGVLYRSNHDISNFANLAWDTREKFGCAVVNCPLGEIDTTSNRDGETYATAIHVVCHYPKILEKEEKQIYEVGKPCDRCSEYSKNANNITSPNWVCNDDDGVCFIGSKDDYISKEFYRFREL
notes: also called mature AcaNIF4
Regarding B7, the binding result in experiment [5] is given as “binds”.

B8: AceNIF3 produced in Pichia pastoris (pYAM7SP-AceNIF3) (ligand)
chain: NEHEPTCKQNNGSMTNELRRRFLRLHNGYRSILALGHVNISEESNETFLYAHRASRMRILDYDCDAEGSAYESAIKQCSSNKSSSAEYDENVYVIDNTYEDEVDPALKAISSWTSQAFNLTHAEEGIPYQWNDSVSDFANVAWDAREKLGCAVVTCDQGNTTHVVCHYGPKAANKTEPIYKVGVPCSNCTEYTRGDEEKVFCHADEGVCVINLRDLNSHLNTSLRYPPI
notes: Carries a hybrid N-terminus N-E-H-E-P-T-C-K-Q (first three residues from AcaNIF9); Tested as crude Pichia cell supernatant
Regarding B8, the binding result in experiment [4] is “binds”.
